Assay results published in US20050037969A1 (ARBOR VITA, published 2005).
Ends that are not written are not given here. * marks the point of attachment. Biotin = O=C1N[C@H]2[C@H](CS[C@H]2CCCCC(=O)*)N1

What was measured:
Assay in all cases: A/G assays
[1] = biological target: T1, NSP PDZ-GST fusion protein (Homo sapiens (Human), UniProt Q92743 370-466)
T1 construct: The label NSP is not explained in the excerpts

[2] = biological target: T2, TAX-IP2L PDZ-GST fusion protein (Homo sapiens (Human), UniProt Q8TF64 107-197)
T2 construct: Order of GST and PDZ part and limits not seen in the excerpts
T2 sequence: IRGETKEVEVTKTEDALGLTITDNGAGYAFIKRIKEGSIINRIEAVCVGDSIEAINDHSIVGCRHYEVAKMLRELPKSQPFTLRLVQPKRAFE

[3] = biological target: T3, GST-TAX-IP43 PDZ domain fusion protein (human, UniProt Q13884 109-180)
T3 construct: also called TAX43; not shown: glutathione S-transferase encoded by vector pGEX-3X (Pharmacia)
T3 sequence: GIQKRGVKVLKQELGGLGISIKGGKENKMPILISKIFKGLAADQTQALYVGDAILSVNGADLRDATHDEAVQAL

[4] = biological target: T4, GST-PDZK1 fusion protein (PDZ domains 2-4) (Homo sapiens, UniProt Q5T2W1 134-457)
T4 construct: not shown: glutathione S-transferase encoded by vector pGEX-3X (Pharmacia)
T4 sequence: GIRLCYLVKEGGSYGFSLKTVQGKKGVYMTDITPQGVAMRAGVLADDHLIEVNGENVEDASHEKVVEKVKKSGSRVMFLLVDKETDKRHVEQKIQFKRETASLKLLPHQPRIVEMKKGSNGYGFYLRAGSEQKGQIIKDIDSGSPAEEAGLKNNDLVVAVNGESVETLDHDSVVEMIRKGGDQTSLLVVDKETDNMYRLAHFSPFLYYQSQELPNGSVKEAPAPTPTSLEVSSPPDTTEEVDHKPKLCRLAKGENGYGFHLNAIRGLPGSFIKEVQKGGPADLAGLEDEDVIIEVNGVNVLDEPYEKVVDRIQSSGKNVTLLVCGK

[5] = biological target: T5, GST-PTN-4 PDZ domain fusion protein (Homo sapiens (Human), UniProt P29074 517-605)
T5 construct: also called protein-tyrosine phosphatase meg1; not shown: glutathione S-transferase encoded by vector pGEX-3X (Pharmacia)
T5 sequence: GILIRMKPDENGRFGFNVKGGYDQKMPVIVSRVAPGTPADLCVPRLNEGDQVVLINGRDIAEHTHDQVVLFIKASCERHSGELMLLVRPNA

[6] = biological target: T6, GST-AF6 PDZ domain fusion protein (Homo sapiens (Human), UniProt P55196 1001-1093)
T6 construct: also called af-6 protein; not shown: glutathione S-transferase encoded by vector pGEX-3X (Pharmacia)
T6 sequence: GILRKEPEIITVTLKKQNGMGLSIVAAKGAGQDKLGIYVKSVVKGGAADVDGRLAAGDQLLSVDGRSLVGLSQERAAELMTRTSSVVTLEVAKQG

[7] = biological target: T7, ConEn PDZ-GST fusion protein (Homo sapiens (Human), UniProt Q969H4 193-287)
T7 construct: The label ConEn is not explained in the excerpts
T7 sequence: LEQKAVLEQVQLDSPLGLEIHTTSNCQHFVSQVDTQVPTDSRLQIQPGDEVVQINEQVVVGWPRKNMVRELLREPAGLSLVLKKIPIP

[8] = biological target: T8, K858 PDZ-GST fusion protein (Homo sapiens (Human), UniProt Q8WWI1 1038-1131)
T8 construct: Order of GST and PDZ part and limits not seen in the excerpts
T8 sequence: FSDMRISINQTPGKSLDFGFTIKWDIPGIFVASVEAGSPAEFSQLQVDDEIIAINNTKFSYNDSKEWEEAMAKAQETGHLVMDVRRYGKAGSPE

[9] = biological target: T9, GST-TIAM1 PDZ domain fusion protein (Homo sapiens (Human), UniProt Q13009 845-931)
T9 construct: also called TLAM1; T-lymphoma invasion and metastasis inducing protein 1; not shown: glutathione S-transferase encoded by vector pGEX-3X (Pharmacia)

[10] = biological target: T10, GST-MPP1 PDZ domain fusion protein (Homo sapiens (Human), UniProt Q00013 67-152)
T10 construct: also called p55; 55 Kd erythrocyte membrane protein; not shown: glutathione S-transferase encoded by vector pGEX-3X (Pharmacia)
T10 sequence: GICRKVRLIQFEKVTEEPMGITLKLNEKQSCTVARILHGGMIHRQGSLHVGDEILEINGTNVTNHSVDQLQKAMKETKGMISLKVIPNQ

[11] = biological target: T11, GST-RGS12 PDZ domain fusion protein (human, UniProt O14924 17-85)
T11 construct: also called human regulator of G-protein signalling 12; not shown: glutathione S-transferase encoded by vector pGEX-3X (Pharmacia)
T11 sequence: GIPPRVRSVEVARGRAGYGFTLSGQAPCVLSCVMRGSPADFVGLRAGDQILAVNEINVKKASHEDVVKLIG

[12] = biological target: T12, PICK1 PDZ-GST fusion protein (Bos taurus (Bovine), UniProt Q2T9M1 17-105)
T12 construct: Order of GST and PDZ part and limits not seen in the excerpts

[13] = biological target: T13, GST-prIL16 fusion protein (PDZ domains 1-2) (Homo sapiens (Human), UniProt Q14005 1111-1324)
T13 construct: also called putative interleukin 16 precursor; not shown: glutathione S-transferase encoded by vector pGEX-3X (Pharmacia)
T13 sequence: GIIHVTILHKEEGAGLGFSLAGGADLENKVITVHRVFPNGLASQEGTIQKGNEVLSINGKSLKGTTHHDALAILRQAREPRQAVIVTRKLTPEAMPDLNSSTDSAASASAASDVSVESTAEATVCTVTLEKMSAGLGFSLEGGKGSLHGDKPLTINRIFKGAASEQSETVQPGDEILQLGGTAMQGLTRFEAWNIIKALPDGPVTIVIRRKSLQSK

[14] = biological target: T14, MINT3 PDZ-GST fusion protein
T14 construct: Order of GST and PDZ part and limits not seen in the excerpts
T14 chain: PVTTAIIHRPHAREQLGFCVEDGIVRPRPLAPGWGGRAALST

[15] = biological target: T15, K316 PDZ-GST fusion protein (Homo sapiens (Human), UniProt Q14CM0 72-159)
T15 construct: Order of GST and PDZ part and limits not seen in the excerpts

Measured: binding result

T15 sequence (Q14CM0 72-159 limits assumed): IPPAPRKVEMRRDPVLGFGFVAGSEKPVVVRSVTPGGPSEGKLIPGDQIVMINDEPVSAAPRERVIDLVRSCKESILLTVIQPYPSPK
T12 sequence (Q2T9M1 other isoform, or with tags, fused parts or gaps limits assumed): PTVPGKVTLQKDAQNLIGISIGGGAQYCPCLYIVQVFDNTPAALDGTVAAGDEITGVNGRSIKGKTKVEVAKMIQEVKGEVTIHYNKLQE
T1 sequence (Q92743 other isoform, or with tags, fused parts or gaps limits assumed): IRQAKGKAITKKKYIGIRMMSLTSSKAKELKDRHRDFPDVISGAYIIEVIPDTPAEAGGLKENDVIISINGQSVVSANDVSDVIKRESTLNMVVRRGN
T9 sequence (Q13009 other isoform, or with tags, fused parts or gaps): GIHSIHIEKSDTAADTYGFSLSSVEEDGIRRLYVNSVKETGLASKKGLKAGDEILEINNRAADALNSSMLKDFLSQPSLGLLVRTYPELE

B1: PAG C-terminal peptide AA58L, biotinylated (peptide)
peptide: Biotin-KENDYESISDLQQGRDITRL
notes: also called Phosphoprotein Associated with GEMs
not listed: [15]
no binding: all other assays above

B2: Spectrin (beta) C-terminal peptide AA32L, biotinylated (peptide)
peptide: Biotin-SFPPCGHRENVPGQSLVSFV
notes: Marked (S), sticky; also called Spectrin beta (S); Spectrin β
no binding: [4] | [8] | [9] | [11] | [12] | [13]

Biotin-AWDDSARAAGGQGLHVTAL [LPAP C-terminal peptide AA30L, biotinylated]
not listed: [15]
no binding: all other assays above

Biotin-KKGTYLTDETHREVKFTSL [CD46 (Form 1) C-terminal peptide AA10L, biotinylated]
no binding: all assays above

Biotin-SVFSIPTLWSPWPPSSSSQL (also called CD3η; CD3-eta) [CD3n C-terminal peptide AA4L, biotinylated]
no binding: all assays above

Biotin-ARKANMKGSYSLVEAQKSKV (also called CD106) [VCAM1 C-terminal peptide AA17L, biotinylated]
not listed: [9] | [10]
no binding: all other assays above

Biotin-PSWRRSSLSESENATSLTTF (also called CXCR5) [BLR-1 C-terminal peptide AA45L, biotinylated]
not listed: [4]
no binding: all other assays above

Biotin-KDSRPSFVGSSSGHTSTTL (also called CDW128E (IL8RB)) [CDW128B (IL8RB) C-terminal peptide AA29.2L, biotinylated]
not listed: [11]
no binding: all other assays above

Biotin-TTNNNPNSAVNIKKIFTDV [KV1.3 C-terminal peptide AA33L, biotinylated]
not listed: [11]
no binding: all other assays above
